# In US20100099619A1:
# T1: neuropeptide Y2 receptor, P49146
# T1 chain: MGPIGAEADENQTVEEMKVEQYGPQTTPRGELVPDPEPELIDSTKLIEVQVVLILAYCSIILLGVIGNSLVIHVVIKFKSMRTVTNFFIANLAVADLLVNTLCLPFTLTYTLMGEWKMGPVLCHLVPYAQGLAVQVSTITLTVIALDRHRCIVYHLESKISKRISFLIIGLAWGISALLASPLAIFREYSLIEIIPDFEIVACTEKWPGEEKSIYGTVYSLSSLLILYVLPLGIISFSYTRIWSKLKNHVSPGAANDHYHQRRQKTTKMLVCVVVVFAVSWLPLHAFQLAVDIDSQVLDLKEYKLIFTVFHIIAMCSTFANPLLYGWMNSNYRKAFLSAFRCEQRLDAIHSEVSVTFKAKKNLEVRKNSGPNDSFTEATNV
# T2: neuropeptide Y1 receptor, P25929
# T2 chain: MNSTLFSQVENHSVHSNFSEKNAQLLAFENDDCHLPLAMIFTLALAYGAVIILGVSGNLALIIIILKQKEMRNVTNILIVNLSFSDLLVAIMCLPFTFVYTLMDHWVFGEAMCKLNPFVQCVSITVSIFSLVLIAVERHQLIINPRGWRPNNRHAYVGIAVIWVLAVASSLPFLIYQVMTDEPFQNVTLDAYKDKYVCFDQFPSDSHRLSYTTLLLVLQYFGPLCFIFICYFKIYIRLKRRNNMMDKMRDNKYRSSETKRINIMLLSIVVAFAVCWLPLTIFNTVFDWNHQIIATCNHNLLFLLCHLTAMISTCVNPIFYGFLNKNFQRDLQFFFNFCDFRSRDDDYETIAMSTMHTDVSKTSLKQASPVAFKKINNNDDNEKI
# T3: neuropeptide Y5 receptor (Homo sapiens (Human)), Q15761
# T3 chain: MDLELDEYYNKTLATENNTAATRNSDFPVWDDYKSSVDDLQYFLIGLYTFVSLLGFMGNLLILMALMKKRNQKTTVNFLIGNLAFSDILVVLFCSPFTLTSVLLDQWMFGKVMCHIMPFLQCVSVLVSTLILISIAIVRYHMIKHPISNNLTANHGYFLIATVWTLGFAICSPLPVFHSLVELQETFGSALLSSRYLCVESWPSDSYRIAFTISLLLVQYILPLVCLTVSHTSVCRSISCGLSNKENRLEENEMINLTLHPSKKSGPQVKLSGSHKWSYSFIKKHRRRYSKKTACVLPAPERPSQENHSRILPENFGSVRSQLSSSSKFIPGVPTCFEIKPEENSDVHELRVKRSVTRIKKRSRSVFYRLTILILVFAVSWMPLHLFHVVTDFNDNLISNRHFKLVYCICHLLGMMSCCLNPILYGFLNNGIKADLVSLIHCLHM
# Target: T1, neuropeptide Y2 receptor, P49146
# Test: radioligand competition, [125I]-hPYY, SK-N-BE membranes
row,Binder,Y2RBA
1,YPIKPEAPGEDASPEELNQYAADLRRYINMLTRQRY (modifications not checked) [SEQ ID NO 316],0.63 nM
2,YPIKPEAPGEDASPEELAQYAADLRRYINMLTRPRY (modifications not checked) [SEQ ID NO 309],78 nM
3,IKPEAPGEDASPEELAQYAADLRRYINMLTRPRY (modifications not checked) [SEQ ID NO 310],454 nM

# Now from value to binder:
row,Y2RBA,Binder
1,0.62 nM,YPIKPEAPGEDASPDELAQYAADLRRYINMLTRQRY (modifications not checked) [SEQ ID NO 342]
2,18 nM,YPIKPEAPGEDASPEELAQYAAELRRYIQMLTRQRY (modifications not checked) [SEQ ID NO 347]
3,0.72 nM,YPIKPEAGPEDASPEELAQYAADLRRYINMLTRQRY (modifications not checked) [SEQ ID NO 335]
4,1.3 nM,YAIKPEAPGEDASPEELAQYAADLRRYINMLTRQRY (modifications not checked) [SEQ ID NO 318]

# Target: T1, neuropeptide Y2 receptor, P49146
# Test: displacement of [125I]-human PYY, SK-N-BE membranes
row,Y2RBA,Binder
1,7.4 nM,YPIAPEAPGEDASPEELAQYAADLRRYINMLTRQRY (modifications not checked) [SEQ ID NO: 476]
2,4.4 nM,IAPEAPGEDASPEELAQYAADLRRYINMLTRQRY (modifications not checked) [SEQ ID NO: 477]

# Target: neuropeptide Y4 receptor
# Test: competition vs [125I]-hPP, Y4-transfected CHO-K1 membranes
# Sequence of neuropeptide Y4 receptor (P50391 whole entry): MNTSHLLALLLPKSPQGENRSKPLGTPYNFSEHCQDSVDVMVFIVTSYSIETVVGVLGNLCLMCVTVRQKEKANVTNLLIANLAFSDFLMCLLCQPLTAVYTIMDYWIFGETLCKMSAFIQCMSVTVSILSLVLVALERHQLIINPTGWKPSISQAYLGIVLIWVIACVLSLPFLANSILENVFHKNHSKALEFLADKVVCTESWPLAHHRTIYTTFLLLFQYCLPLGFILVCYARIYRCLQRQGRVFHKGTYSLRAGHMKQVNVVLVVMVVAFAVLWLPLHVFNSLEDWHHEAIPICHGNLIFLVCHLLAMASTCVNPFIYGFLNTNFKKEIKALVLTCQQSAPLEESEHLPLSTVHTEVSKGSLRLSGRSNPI
row,Y4 RBA,Binder
1,33 nM,RHYLNLVTRQRY (modifications not checked) [SEQ ID NO: 179]
2,0.034 nM,APLEPVYPGDNATPEQMAQYAADLRRYINMLTRPRY (modifications not checked) [PP (human pancreatic polypeptide)]

# Target: neuropeptide Y4 receptor
# Test: displacement of [125I]-human PP, Y4-transfected CHO-K1 membranes
row,Y4 RBA,Binder
1,53 nM,YPIAPEAPGEDASPEELAQYAADLRRYINMLTRQRY (modifications not checked) [SEQ ID NO: 476]
2,164 nM,IAPEAPGEDASPEELAQYAADLRRYINMLTRQRY (modifications not checked) [SEQ ID NO: 477]

# Target: T2, neuropeptide Y1 receptor, P25929
# Test: displacement of [125I]-human PYY, SK-N-MC membranes
row,Y1RBA,Binder
1,27 nM,YPIAPEAPGEDASPEELAQYAADLRRYINMLTRQRY (modifications not checked) [SEQ ID NO: 476]
2,265 nM,IAPEAPGEDASPEELAQYAADLRRYINMLTRQRY (modifications not checked) [SEQ ID NO: 477]

# Target: neuropeptide Y4 receptor
# Test: radioligand competition, [125I]-hPP, Y4/CHO-K1 membranes
row,Binder,Y4 RBA
1,ASLRHYLNLVTRQRY (modifications not checked) [SEQ ID NO 202],23 nM
2,APLEPVYPGDNATPEQMNRYYASLRHYLNLAPRQRY (modifications not checked) [SEQ ID NO 289],48 nM
3,YPIKPEAPGEDASPEELNQYAADLRRYINMLTRQRY (modifications not checked) [SEQ ID NO 316],52 nM
4,YPIKPEAPGEDASPEELAQYAADLRRYINMLTRPRY (modifications not checked) [SEQ ID NO 309],5.6 nM
5,ASLRHYLNLVTRQRY (modifications not checked) [SEQ ID NO 203],108 nM
6,IKPEAPGEDASPEELAQYAADLRRYINMLTRPRY (modifications not checked) [SEQ ID NO 310],27 nM

# Further lines, results first:
row,Y4 RBA,Binder
1,84 nM,YPIKPEAPGEDASPDELAQYAADLRRYINMLTRQRY (modifications not checked) [SEQ ID NO 342]
2,740 nM,YPIKPEAPGEDASPEELAQYAAELRRYIQMLTRQRY (modifications not checked) [SEQ ID NO 347]
3,109 nM,YPIKPEAGPEDASPEELAQYAADLRRYINMLTRQRY (modifications not checked) [SEQ ID NO 335]
4,84 nM,YAIKPEAPGEDASPEELAQYAADLRRYINMLTRQRY (modifications not checked) [SEQ ID NO 318]

# Target: T3, neuropeptide Y5 receptor (Homo sapiens …)
# Test: radioligand competition, [125I]-hPYY, Y5/CHO-K1 membranes
row,Binder,Y5RBA
1,APLEPVYPGDNATPEQMNRYYASLRHYLNLAPRQRY (modifications not checked) [SEQ ID NO 289],0.83 nM
2,YPIKPEAPGEDASPEELNQYAADLRRYINMLTRQRY (modifications not checked) [SEQ ID NO 316],1.1 nM
3,YPIKPEAPGEDASPEELAQYAADLRRYINMLTRPRY (modifications not checked) [SEQ ID NO 309],1.5 nM
4,IKPEAPGEDASPEELAQYAADLRRYINMLTRPRY (modifications not checked) [SEQ ID NO 310],5.1 nM

# The remaining lines, values ahead:
row,Y5RBA,Binder
1,1.4 nM,YPIKPEAPGEDASPDELAQYAADLRRYINMLTRQRY (modifications not checked) [SEQ ID NO 342]
2,51 nM,YPIKPEAPGEDASPEELAQYAAELRRYIQMLTRQRY (modifications not checked) [SEQ ID NO 347]
3,3.6 nM,YPIKPEAGPEDASPEELAQYAADLRRYINMLTRQRY (modifications not checked) [SEQ ID NO 335]
4,1.9 nM,YAIKPEAPGEDASPEELAQYAADLRRYINMLTRQRY (modifications not checked) [SEQ ID NO 318]

# Target: T2, neuropeptide Y1 receptor, P25929
# Test: radioligand competition, [125I]-hPYY, SK-N-MC membranes
row,Binder,Y1RBA
1,YPIKPEAPGEDASPEELNQYAADLRRYINMLTRQRY (modifications not checked) [SEQ ID NO 316],7.1 nM
2,YPIKPEAPGEDASPEELAQYAADLRRYINMLTRPRY (modifications not checked) [SEQ ID NO 309],3.3 nM
3,IKPEAPGEDASPEELAQYAADLRRYINMLTRPRY (modifications not checked) [SEQ ID NO 310],29 nM

# Further lines, results first:
row,Y1RBA,Binder
1,15 nM,YPIKPEAPGEDASPDELAQYAADLRRYINMLTRQRY (modifications not checked) [SEQ ID NO 342]
2,35 nM,YPIKPEAPGEDASPEELAQYAAELRRYIQMLTRQRY (modifications not checked) [SEQ ID NO 347]
3,34 nM,YPIKPEAGPEDASPEELAQYAADLRRYINMLTRQRY (modifications not checked) [SEQ ID NO 335]
4,100 nM,YAIKPEAPGEDASPEELAQYAADLRRYINMLTRQRY (modifications not checked) [SEQ ID NO 318]

# Target: neuropeptide Y5 receptor
# Test: displacement of [125I]-human PYY, Y5-transfected CHO-K1 membranes
row,Y5RBA,Binder
1,15 nM,YPIAPEAPGEDASPEELAQYAADLRRYINMLTRQRY (modifications not checked) [SEQ ID NO: 476]
2,18 nM,IAPEAPGEDASPEELAQYAADLRRYINMLTRQRY (modifications not checked) [SEQ ID NO: 477]
